Data taken from paper PMC6742660, “Autoinhibition and activation mechanisms of the eukaryotic lipid flippase Drs2p-Cdc50p” (Nature Communications, 2019).

Target: T1, Drs2p (S. cerevisiae, UniProt P39524 1-1355)
T1 construct: Drs2p, Saccharomyces cerevisiae, intact protein of 1355 residues; Co-purified with endogenous Cdc50p; Residues 196-212 of the N-terminal peptide and Glu1231-Ala1309 of the C-terminal peptide are ordered in the apo map; The last 46 residues are disordered; also called Drs2p ATPase; P4 ATPase subunit of the Drs2p-Cdc50p lipid flippase; not shown: triple FLAG, C-terminal, kept
T1 sequence (looked up): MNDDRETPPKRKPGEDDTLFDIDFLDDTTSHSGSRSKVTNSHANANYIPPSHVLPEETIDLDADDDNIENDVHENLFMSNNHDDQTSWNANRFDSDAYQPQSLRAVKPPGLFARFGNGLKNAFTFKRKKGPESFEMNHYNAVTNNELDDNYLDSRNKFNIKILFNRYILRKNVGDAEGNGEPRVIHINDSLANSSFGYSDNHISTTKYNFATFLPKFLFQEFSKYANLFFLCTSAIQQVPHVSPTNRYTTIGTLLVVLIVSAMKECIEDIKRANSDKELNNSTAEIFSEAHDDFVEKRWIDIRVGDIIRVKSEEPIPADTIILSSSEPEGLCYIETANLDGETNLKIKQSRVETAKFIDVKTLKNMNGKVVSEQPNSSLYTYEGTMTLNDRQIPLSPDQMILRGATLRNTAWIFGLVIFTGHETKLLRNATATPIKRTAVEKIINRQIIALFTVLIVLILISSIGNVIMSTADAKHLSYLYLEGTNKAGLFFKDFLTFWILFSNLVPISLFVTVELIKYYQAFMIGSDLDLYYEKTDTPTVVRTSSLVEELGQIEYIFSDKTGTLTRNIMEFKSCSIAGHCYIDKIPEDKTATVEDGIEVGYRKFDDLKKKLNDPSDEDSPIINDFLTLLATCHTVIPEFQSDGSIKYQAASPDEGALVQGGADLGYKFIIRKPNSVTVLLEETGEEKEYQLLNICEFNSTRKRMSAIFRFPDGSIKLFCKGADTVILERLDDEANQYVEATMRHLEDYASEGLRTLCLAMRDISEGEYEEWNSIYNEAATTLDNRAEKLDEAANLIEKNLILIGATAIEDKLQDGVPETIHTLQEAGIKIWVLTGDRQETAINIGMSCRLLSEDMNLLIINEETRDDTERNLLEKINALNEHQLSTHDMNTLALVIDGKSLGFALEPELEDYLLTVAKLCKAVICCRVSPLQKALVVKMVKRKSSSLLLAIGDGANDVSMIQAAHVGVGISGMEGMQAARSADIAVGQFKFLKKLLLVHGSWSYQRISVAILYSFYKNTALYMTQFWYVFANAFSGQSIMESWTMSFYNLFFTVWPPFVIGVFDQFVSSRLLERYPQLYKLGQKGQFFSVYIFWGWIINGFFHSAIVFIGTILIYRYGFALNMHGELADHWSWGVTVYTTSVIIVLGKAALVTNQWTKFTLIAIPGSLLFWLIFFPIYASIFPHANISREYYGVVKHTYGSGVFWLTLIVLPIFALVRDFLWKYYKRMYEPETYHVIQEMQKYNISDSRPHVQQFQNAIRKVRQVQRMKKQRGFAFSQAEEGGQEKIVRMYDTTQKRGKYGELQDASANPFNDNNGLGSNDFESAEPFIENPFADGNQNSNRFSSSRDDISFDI
Assay: cryo-EM structure; endogenous Drs2p-Cdc50p complex as purified, apo autoinhibited form, 3 mg/mL; 0.01% LMNG, 0.001% CHS, 150 mM NaCl, 20 mM Tris-HCl pH 7.4, 1 mM MgCl2, 1 mM MnCl2; 2.8 Å map
Settings: both partners purified

B1: Cdc50p (natural protein, S. cerevisiae, UniProt P25656 1-391, looked up)
chain: MVSLFKRGKAPPLTKEGPTSKKPPNTAFRQQRLKAWQPILSPQSVLPLLIFVACIFTPIGIGLIVSATKVQDLTIDYSHCDTKASTTAFEDIPKKYIKYHFKSKVENKPQWRLTENENGEQSCELQFEIPNDIKKSIFIYYKITNFYQNHRRYVQSFDTKQILGEPIKKDDLDTSCSPIRSREDKIIYPCGLIANSMFNDTFSQVLSGIDDTEDYNLTNKHISWSIDRHRFKTTKYNASDIVPPPNWMKKYPDGYTDENLPDIHTWEEFQVWMRTAAFPKFYKLTLKNESASLPKGKYQMNIELNYPISLFGGTKSFVLTTNGAIGGRNMSLGVLYLIVAGLCALFGIIFLVKLIFQPRAMGDHTYLNFDDEENEDYEDVHAENTTLREIL
modifications: N-glycans at Asn-199, Asn-216 and Asn-288; disulfide bonds Cys-80 with Cys-123 and Cys-176 with Cys-190
notes: Cdc50p, Saccharomyces cerevisiae, endogenous untagged subunit of the Drs2p-Cdc50p complex; The first half of the 40-residue N-terminal peptide and the 31-residue C-terminal peptide are disordered in the map
binding result: binds
